The results in this text go back to US20220002403A1 (Merck Sharp & Dohme, published 2022).

The target of experiment [1] is T1, human ILT4 expressed on CHO cells (CHO/ILT4 cell line) (human, UniProt Q8N423 22-597).
T1 construct: also called CHO/ILT4+ cells; CHO-expressed ILT4
The experiment is described as follows: cell-based ligand blocking assay: CHO/ILT4 cells pre-incubated with antibody (1-20,000 ng/mL), then biotinylated HLA-G/Fc.

Experiment [2] addresses T2, recombinant human ILT4 antigen chemically coupled to Luminex beads (ILT4/Fc) (human, UniProt Q8N423 22-460).
T2 construct: also called Luminex bead-coupled ILT4/Fc; not shown: Fc part
Nature of the experiment: Luminex ligand blocking assay: bead-coupled ILT4 pre-incubated with antibody (0.5-9,000 ng/mL), then 50 nM biotinylated HLA-G/Fc.

For experiment [3], the target named is T3, ILT4-His (recombinant extracellular domain of human ILT4 fused to a poly-Histidine tag) (human, UniProt Q8N423 22-460).
T3 construct: also called polyhistidine-tagged human ILT4; recombinant histidine tagged, extracellular domain of ILT4; not shown: poly-histidine tag
Nature of the experiment: SPR; ratio of KD to that of 1E1(G4) (the reference itself).

In experiment [4] the target is T4, human LILRA1 expressed on mouse 3A9 T cells (human, UniProt O75019 17-489).
T4 construct: whole, on cells
Nature of the experiment: flow cytometry on 3A9 T cell transfectants.

The target of experiment [5] is T5, human ILT2 expressed on mouse 3A9 T cells (human, UniProt Q8NHL6 24-650).
T5 construct: whole, on cells
Nature of the experiment: flow cytometry on 3A9 T cell transfectants.

Experiment [6] deals with T6, human ILT7 expressed on mouse 3A9 T cells (human, UniProt P59901 24-499).
T6 construct: whole, on cells
Nature of the experiment: flow cytometry on 3A9 T cell transfectants.

Experiment [7] has as its target T7, human ILT8 expressed on mouse 3A9 T cells (human, UniProt Q6PI73 24-481).
T7 construct: whole, on cells
The experiment is described as follows: flow cytometry on 3A9 T cell transfectants.

In experiment [8] the target is T8, human ILT5 expressed on mouse 3A9 T cells (human, UniProt O75022 24-631).
T8 construct: whole, on cells
Nature of the experiment: flow cytometry on 3A9 T cell transfectants.

The target in experiment [9] is T9, human ILT11 expressed on mouse 3A9 T cells (human, UniProt A6NI73 42-299).
T9 construct: whole, on cells
The experiment is described as follows: flow cytometry on 3A9 T cell transfectants.

Experiment [10] has as its target T10, human LILRA2 expressed on mouse 3A9 T cells (human, UniProt Q8N149 24-483).
T10 construct: whole, on cells
The experiment is described as follows: flow cytometry on 3A9 T cell transfectants.

In experiment [11] the target is T11, human LILRB5 expressed on mouse 3A9 T cells (human, UniProt O75023 24-590).
T11 construct: whole, on cells
Nature of the experiment: flow cytometry on 3A9 T cell transfectants.

Experiment [12] has as its target T12, human ILT3 (two variants) expressed on mouse 3A9 T cells (human, UniProt Q8NHJ6 22-448).
T12 construct: whole, on cells; Two variants were tested
The experiment is described as follows: flow cytometry on 3A9 T cell transfectants (two ILT3 variants).

Experiment [13] deals with T3, ILT4-His (recombinant extracellular …). The experiment is described as follows: SPR (Biacore T200): mAb captured by human Fc capture on CM5 chip, ILT4-His titrated; 1:1 model; n=2.

T1 sequence (Q8N423 other isoform, or with tags, fused parts or gaps): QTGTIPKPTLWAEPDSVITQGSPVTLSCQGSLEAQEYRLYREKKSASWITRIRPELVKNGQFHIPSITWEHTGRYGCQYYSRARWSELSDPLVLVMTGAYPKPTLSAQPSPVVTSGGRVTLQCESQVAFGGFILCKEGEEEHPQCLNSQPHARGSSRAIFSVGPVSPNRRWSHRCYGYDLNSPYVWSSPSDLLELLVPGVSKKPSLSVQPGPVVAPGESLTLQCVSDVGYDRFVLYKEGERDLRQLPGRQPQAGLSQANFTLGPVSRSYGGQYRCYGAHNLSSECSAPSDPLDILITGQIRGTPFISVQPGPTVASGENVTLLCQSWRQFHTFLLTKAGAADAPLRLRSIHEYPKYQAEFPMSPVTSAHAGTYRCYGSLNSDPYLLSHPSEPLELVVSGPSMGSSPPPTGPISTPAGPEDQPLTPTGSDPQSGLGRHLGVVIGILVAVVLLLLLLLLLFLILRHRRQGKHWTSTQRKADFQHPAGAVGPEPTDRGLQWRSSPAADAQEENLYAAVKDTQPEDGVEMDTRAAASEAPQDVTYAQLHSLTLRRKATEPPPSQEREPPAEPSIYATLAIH
T2 sequence (Q8N423 other isoform, or with tags, fused parts or gaps): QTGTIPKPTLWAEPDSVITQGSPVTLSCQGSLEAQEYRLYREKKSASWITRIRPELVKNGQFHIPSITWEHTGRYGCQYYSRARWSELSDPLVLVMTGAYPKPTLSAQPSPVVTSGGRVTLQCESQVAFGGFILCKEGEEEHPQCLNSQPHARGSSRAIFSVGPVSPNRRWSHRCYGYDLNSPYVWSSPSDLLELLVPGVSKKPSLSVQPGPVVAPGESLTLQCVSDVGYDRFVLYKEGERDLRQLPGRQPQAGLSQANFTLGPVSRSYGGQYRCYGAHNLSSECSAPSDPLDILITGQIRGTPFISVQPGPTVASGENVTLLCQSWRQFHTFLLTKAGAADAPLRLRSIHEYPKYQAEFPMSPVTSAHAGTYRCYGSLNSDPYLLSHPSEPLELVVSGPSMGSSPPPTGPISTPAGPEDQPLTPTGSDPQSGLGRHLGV
T10 sequence (Q8N149 24-483): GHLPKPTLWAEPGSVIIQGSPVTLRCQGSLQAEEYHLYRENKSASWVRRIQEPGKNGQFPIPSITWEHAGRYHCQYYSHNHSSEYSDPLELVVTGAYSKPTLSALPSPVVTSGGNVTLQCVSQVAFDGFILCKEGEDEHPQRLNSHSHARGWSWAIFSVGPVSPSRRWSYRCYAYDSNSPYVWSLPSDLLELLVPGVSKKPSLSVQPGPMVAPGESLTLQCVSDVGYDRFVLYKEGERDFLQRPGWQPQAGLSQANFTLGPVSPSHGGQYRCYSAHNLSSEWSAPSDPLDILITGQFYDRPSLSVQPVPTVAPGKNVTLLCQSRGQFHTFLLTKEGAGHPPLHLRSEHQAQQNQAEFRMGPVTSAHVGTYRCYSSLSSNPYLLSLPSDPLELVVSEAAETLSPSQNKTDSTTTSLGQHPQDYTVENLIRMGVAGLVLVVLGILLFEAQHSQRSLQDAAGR
T5 sequence (Q8NHL6 24-650): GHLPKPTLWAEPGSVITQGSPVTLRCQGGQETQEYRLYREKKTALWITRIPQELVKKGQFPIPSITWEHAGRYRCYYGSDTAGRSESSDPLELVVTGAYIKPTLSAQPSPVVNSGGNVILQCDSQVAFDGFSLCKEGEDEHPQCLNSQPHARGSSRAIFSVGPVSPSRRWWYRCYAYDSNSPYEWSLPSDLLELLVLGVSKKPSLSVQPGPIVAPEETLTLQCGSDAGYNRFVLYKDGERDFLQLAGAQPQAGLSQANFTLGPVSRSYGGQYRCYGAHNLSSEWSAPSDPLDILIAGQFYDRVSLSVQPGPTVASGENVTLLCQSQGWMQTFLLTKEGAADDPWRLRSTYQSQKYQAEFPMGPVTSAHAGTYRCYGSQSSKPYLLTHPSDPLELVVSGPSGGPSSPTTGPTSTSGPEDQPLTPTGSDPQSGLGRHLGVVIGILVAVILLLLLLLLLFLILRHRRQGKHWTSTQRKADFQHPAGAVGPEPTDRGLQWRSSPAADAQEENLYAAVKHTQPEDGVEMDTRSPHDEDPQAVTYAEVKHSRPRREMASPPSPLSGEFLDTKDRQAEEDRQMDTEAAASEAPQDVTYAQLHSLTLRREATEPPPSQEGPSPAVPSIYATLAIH
T9 sequence (A6NI73 42-299): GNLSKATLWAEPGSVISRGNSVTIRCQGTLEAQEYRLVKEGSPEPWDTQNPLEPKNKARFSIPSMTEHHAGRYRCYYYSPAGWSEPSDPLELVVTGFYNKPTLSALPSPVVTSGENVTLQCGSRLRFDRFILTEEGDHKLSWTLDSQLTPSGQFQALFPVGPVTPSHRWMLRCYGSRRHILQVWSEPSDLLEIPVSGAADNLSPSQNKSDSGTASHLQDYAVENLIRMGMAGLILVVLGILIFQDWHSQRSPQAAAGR
T11 sequence (O75023 24-590): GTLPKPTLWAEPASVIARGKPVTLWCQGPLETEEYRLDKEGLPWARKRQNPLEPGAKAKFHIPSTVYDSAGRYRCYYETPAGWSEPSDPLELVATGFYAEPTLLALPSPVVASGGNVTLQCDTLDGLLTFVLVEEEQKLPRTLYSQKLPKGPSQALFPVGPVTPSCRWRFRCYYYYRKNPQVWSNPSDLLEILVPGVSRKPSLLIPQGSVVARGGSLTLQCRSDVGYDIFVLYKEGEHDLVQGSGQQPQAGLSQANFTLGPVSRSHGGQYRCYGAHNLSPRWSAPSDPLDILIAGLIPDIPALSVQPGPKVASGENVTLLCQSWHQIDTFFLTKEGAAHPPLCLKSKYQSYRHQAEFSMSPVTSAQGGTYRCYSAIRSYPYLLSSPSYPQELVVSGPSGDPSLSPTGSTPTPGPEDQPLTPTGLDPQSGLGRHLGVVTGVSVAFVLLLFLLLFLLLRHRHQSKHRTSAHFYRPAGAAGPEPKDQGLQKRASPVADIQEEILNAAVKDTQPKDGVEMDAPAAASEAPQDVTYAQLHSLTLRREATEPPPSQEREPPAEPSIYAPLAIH
T4 sequence (O75019 17-489): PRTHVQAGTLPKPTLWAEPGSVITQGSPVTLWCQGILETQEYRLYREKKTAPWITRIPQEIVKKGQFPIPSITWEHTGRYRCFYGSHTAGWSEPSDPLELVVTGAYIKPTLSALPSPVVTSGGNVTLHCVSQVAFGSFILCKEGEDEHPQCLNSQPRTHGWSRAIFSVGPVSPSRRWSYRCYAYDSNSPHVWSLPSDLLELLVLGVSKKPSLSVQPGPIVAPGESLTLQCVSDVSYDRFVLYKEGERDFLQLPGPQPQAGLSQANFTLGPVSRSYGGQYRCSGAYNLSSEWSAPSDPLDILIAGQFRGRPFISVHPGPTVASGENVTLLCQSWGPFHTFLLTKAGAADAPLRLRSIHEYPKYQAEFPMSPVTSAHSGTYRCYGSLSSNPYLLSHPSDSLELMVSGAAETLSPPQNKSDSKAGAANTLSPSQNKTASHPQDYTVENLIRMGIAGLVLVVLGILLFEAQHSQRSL
T7 sequence (Q6PI73 24-481): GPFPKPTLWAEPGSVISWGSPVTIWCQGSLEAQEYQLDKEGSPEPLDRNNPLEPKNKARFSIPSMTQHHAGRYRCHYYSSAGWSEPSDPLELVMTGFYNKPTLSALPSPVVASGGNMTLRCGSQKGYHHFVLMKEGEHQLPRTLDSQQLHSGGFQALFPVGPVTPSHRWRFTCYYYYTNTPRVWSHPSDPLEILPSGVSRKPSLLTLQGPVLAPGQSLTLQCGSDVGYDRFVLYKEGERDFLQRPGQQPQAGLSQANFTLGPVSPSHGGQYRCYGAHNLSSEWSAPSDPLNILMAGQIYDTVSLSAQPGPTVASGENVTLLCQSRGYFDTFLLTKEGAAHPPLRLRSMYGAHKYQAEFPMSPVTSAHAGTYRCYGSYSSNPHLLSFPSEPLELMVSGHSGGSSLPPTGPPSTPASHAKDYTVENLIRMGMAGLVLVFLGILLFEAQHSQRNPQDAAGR
T6 sequence (P59901 24-499): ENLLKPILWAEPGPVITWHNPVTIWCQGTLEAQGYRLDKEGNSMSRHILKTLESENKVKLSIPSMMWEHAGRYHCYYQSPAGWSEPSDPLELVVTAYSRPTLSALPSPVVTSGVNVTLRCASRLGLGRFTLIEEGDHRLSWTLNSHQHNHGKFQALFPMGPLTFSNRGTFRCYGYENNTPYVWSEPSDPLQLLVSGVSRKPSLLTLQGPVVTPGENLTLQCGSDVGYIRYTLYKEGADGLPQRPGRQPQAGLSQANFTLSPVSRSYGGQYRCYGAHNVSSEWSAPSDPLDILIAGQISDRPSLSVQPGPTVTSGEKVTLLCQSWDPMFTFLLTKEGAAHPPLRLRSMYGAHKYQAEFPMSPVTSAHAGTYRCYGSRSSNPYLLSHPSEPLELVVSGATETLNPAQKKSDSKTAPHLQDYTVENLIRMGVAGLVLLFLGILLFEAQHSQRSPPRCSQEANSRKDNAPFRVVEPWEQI

B1: 2C1 (antibody, V domains shown)
VH: EVQLVQSGAEVKKPGASVKVSCKVSGYTLTELSMHWVRQAPGKGLEWMGGFDPEDGETIYAQKFQGRVTMTEDTSTDTAYMELSSLRSEDTAVYYCARAGPLYTIFGVVIIPDNWFDPWGQGTLVTVSS
VL: ESVLTQPPSVSGAPGQRVTISCTGSSSNIGAGYDVHWYQQLPGTAPKLLIYGNSNRPSGVPDRFSGSKSGTSASLAITGLQAEDEADYYCQSYDSSLSGSGVVFGGGTQLIILG
notes: hIgG4 variant in the Luminex and cell assays; also called 2C1 (hIgG4 variant)
Turning to B1, the IC50 in [1] worked out at 0.0561 µg/mL; in [2], 0.0102 µg/mL.

B2: 3G7 (antibody, V domains shown)
VH: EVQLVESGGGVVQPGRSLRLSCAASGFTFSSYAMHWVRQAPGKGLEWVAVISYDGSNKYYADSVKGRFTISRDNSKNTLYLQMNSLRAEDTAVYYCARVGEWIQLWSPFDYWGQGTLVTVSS
VL: DIQMTQSPSSVSASVGDRVTITCRASQGISSWLAWYQQKPGKAPKFLIYAASSLQSGVPSKFSGSGSGTDFTLTISSLQPEDFATYYCQQYNSYPPTFGGGTKVEIKR
notes: hIgG4 variant in the Luminex and cell assays; also called 3G7 (hIgG4 variant)
As to B2, the results for the 50% inhibitory concentration (IC50) in experiment [1] and in [2] were 0.374 µg/mL and 0.04 µg/mL, respectively.

B3: 1E1 (hIgG4 variant) (antibody)
heavy: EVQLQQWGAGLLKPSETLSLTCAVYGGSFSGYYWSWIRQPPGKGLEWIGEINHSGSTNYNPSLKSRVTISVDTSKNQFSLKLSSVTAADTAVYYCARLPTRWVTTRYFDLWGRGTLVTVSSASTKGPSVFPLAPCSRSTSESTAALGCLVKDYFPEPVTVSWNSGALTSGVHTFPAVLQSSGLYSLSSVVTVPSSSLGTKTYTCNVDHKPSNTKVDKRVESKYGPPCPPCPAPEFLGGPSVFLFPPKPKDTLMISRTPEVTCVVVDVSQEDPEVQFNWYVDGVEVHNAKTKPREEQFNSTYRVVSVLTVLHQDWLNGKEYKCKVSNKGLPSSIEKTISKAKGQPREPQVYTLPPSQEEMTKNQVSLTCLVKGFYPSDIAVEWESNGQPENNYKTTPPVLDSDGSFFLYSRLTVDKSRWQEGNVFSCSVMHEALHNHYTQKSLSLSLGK
light: ESVLTQPPSVSGAPGQRVTISCTGSSSNIGAGYDVHWYQQLPGTAPKLLIYGNSNRPSGVPDRFSVSKSGASASLAITGLQAEDEADYYCQSFDNSLSAYVFGGGTQLTVLGQPKAAPSVTLFPPSSEELQANKATLVCLISDFYPGAVTVAWKADSSPVKAGVETTTPSKQSNNKYAASSYLSLTPEQWKSHRSYSCQVTHEGSTVEKTVAPTECS
notes: The chain assignment is uncertain
For the molecule B3, the IC50 in [1] came to 0.0984 µg/mL; in experiment [2] it was 0.0192 µg/mL.

B4: 2A6 (antibody, V domains shown)
VH: EVQLVQSGAEVKKPGSSVKVSCKASGGTFSSYAISWVRQAPGQGLEWMGGIIPIFGTANYAQKFQGRVTITADESTSTAYMELSSLRSEDTAVYYCARYFDSSGWYKGGAFDIWGQGTMVTVSS
VL: QSVLTQPSSLSASPGASASLTCTLRSGINVDTYRIHWYQQKPGSPPQYLLRYKSDSDKHQGSGVPSRFSGSKDPSANAGILLISGLQSEDEADYYCAIWYSSTWVFGGGTQLTVLG
notes: hIgG4 variant in the Luminex and cell assays; also called 2A6 (hIgG4 variant)
With B4, the figures for the IC50 in experiment [1] and in [2] were 0.233 µg/mL and 0.0177 µg/mL, respectively.

B5: 1E1(G4) (antibody, human IgG4 S228P, lambda, V domains shown)
VH: EVQLQQWGAGLLKPSETLSLTCAVYGGSFSGYYWSWIRQPPGKGLEWIGEINHAGSTNYNPSLKSRVTISVDTSKNQFSLKLSSVTAADTAVYYCARLPTRWVTTRYFDLWGRGTLVTVSS
VL: ESVLTQPPSVSGAPGQRVTISCTGSSSNIGAGYDVHWYQQLPGTAPKLLIYGDSNRPSGVPDRFSVSKSGASASLAITGLQAEDEADYYCQSFDNSLSAYVFGGGTQLTVLG
notes: also called 1E1 VH Q1E, S54A/VL Q1E, N53D IgG4 S228P/Lambda
For B5, the “KD Ratio” value in experiment [3] came to 1. The binding result in [4], in experiment [5], in experiment [6], in [7], in experiment [8] and in experiment [9] was “no binding (tested: 10 ug/mL)” in each case. Besides, the binding result in [10], in [11] and in experiment [12] was “no binding (tested: 10 ug/mL)” in each case. Also, the Kd in experiment [13] was found to be 17 nM. Further, the koff in [13] came to 0.009 s⁻¹.
